From patent publication US20160297884A1

Legend:
[1] = biological target: BCMA expressed on MM1S cells (human) (UniProt Q02223); assay: cell-based or functional assay
[2] = biological target: B-cell maturation antigen (BCMA) (human) (UniProt Q02223); assay: cell-based or functional assay
Sequence of B-cell maturation antigen (BCMA) (human) (Q02223 whole entry): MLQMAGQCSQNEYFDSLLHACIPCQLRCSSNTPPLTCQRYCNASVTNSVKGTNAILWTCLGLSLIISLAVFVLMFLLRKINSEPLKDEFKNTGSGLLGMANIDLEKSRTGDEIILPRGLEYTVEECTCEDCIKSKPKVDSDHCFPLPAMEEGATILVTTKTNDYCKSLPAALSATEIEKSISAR

Sequence of BCMA expressed on MM1S cells (human) (Q02223 whole entry): as above

% CD107a+ (in CD8+) (degranulation, MM1S cells, Donor 2) [2] [%]	MFI CD107a+ (degranulation, MM1S cells, Donor 2) [2] [MFI]	% CD107a+ (in CD8+) (degranulation, MM1S cells, Donor 3) [2] [%]	MFI CD107a+ (degranulation, MM1S cells, Donor 3) [2] [MFI]	other results	Binder
–	–	–	–	% CD107a+ (in CD8+) (degranulation, Donor 1, co-culture with MM1S) [1]: 46.4%; MFI CD107a+ (degranulation, CD8+ T cells, Donor 1, co-culture with MM1S) [1]: 1850 MFI	P6AP-V1 (protein) EVQLLESGGGLVQPGGSLRLSCAASGFTFGSYAMTWVRQAPGKGLEWVSAISGSGGNTFYADSVKGRFTISRDNSKNTLYLQMNSLRAEDTAVYYCARVSPIAAPMDYWGQGTLVTVSSGGGGSGGGGSGGGGSEIVLTQSPGTLSLSPGERATLSCRASQLGSFYLAWYQQKPGQAPRLLIYGASSRATGIPDRFSGSGSGTDFTLTISRLEPEDFAVYYCQHYNYPPSFTFGQGTKVEIKGLAVSTISSFFPPGYQIYIWAPLAGTCGVLLLSLVITLYCKRGRKKLLYIFKQPFMRPVQTTQEEDGCSCRFPEEEEGGCELRVKFSRSADAPAYQQGQNQLYNELNLGRREEYDVLDKRRGRDPEMGGKPRRKNPQEGLYNELQKDKMAEAYSEIGMKGERRRGKGHDGLYQGLSTATKDTYDALHMQALPPR
68.6	2190	–	–	–	P5AC1-V1 (protein) EVQLLESGGGLVQPGGSLRLSCAASGFTFSSYAMNWVRQAPGKGLEWVSAILSSGGSTYYADSVKGRFTISRDNSKNTLYLQMNSLRAEDTAVYYCARYWPMDIWGQGTLVTVSSGGGGSGGGGSGGGGSEIVLTQSPGTLSLSPGERATLSCRGGQSVSSSYLAWYQQKPGQAPRLLMYDASIRATGIPDRFSGSGSGTDFTLTISRLEPEDFAVYYCQQYQSWPLTFGQGTKVEIKGLAVSTISSFFPPGYQIYIWAPLAGTCGVLLLSLVITLYCKRGRKKLLYIFKQPFMRPVQTTQEEDGCSCRFPEEEEGGCELRVKFSRSADAPAYQQGQNQLYNELNLGRREEYDVLDKRRGRDPEMGGKPRRKNPQEGLYNELQKDKMAEAYSEIGMKGERRRGKGHDGLYQGLSTATKDTYDALHMQALPPR
–	–	68.2	1960	–	PC1C12-V1 (protein) EVQLLESGGGLVQPGGSLRLSCAASGFTFSSYPMSWVRQAPGKGLEWVSAIGGSGGWSYYADSVKGRFTISRDNSKNTLYLQMNSLRAEDTAVYYCARYWPMDSWGQGTLVTVSSGGGGSGGGGSGGGGSEIVLTQSPGTLSLSPGERATLSCWLSQSVSSTYLAWYQQKPGQAPRLLIYDASSRAPGIPDRFSGSGSGTDFTLTISRLEPEDFAVYYCQQYSEWPLTFGQGTKVEIKGLAVSTISSFFPPGYQIYIWAPLAGTCGVLLLSLVITLYCKRGRKKLLYIFKQPFMRPVQTTQEEDGCSCRFPEEEEGGCELRVKFSRSADAPAYQQGQNQLYNELNLGRREEYDVLDKRRGRDPEMGGKPRRKNPQEGLYNELQKDKMAEAYSEIGMKGERRRGKGHDGLYQGLSTATKDTYDALHMQALPPR
–	–	75.6	2180	–	PC1-V1 (protein) EVQLLESGGGLVQPGGSLRLSCAASGFTFSSYPMSWVRQAPGKGLEWVSAIGGSGGSTYYADSVKGRFTISRDNSKNTLYLQMNSLRAEDTAVYYCARYWPMDSWGQGTLVTVSSGGGGSGGGGSGGGGSEIVLTQSPGTLSLSPGERATLSCRASQSVSSTYLAWYQQKPGQAPRLLIYDASSRAPGIPDRFSGSGSGTDFTLTISRLEPEDFAVYYCQQYSTSPLTFGQGTKVEIKGLAVSTISSFFPPGYQIYIWAPLAGTCGVLLLSLVITLYCKRGRKKLLYIFKQPFMRPVQTTQEEDGCSCRFPEEEEGGCELRVKFSRSADAPAYQQGQNQLYNELNLGRREEYDVLDKRRGRDPEMGGKPRRKNPQEGLYNELQKDKMAEAYSEIGMKGERRRGKGHDGLYQGLSTATKDTYDALHMQALPPR
–	–	76.1	2220	–	COM22-V1 (protein) EVQLLESGGGLVQPGGSLRLSCAASGFTFSSYAMNWVRQAPGKGLEWVSAISDSGGSRWYADSVKGRFTISRDNSKNTLYLQMNSLRAEDTAVYYCTRYWPMDIWGQGTLVTVSSGGGGSGGGGSGGGGSEIVLTQSPGTLSLSPGERATLSCRASVRVSSTYLAWYQQKPGQAPRLLMYDASIRATGIPDRFSGSGSGTDFTLTISRLEPEDFAVYYCQQYMKWPLTFGQGTKVEIKGLAVSTISSFFPPGYQIYIWAPLAGTCGVLLLSLVITLYCKRGRKKLLYIFKQPFMRPVQTTQEEDGCSCRFPEEEEGGCELRVKFSRSADAPAYQQGQNQLYNELNLGRREEYDVLDKRRGRDPEMGGKPRRKNPQEGLYNELQKDKMAEAYSEIGMKGERRRGKGHDGLYQGLSTATKDTYDALHMQALPPR
77.6	2670	–	–	–	P5A-V1 (protein) EVQLLESGGGLVQPGGSLRLSCAASGFTFSSYAMNWVRQAPGKGLEWVSAISDSGGSTYYADSVKGRFTISRDNSKNTLYLQMNSLRAEDTAVYYCARYWPMDIWGQGTLVTVSSGGGGSGGGGSGGGGSEIVLTQSPGTLSLSPGERATLSCRASQSVSSSYLAWYQQKPGQAPRLLMYDASIRATGIPDRFSGSGSGTDFTLTISRLEPEDFAVYYCQQYGSWPLTFGQGTKVEIKGLAVSTISSFFPPGYQIYIWAPLAGTCGVLLLSLVITLYCKRGRKKLLYIFKQPFMRPVQTTQEEDGCSCRFPEEEEGGCELRVKFSRSADAPAYQQGQNQLYNELNLGRREEYDVLDKRRGRDPEMGGKPRRKNPQEGLYNELQKDKMAEAYSEIGMKGERRRGKGHDGLYQGLSTATKDTYDALHMQALPPR
61.6	1860	–	–	–	P5AC16-V1 (protein) EVQLLESGGGLVQPGGSLRLSCAASGFTFSSYAMNWVRQAPGKGLEWVSAISDFGGSTYYADSVKGRFTISRDNSKNTLYLQMNSLRAEDTAVYYCARYWPMDIWGQGTLVTVSSGGGGSGGGGSGGGGSEIVLTQSPGTLSLSPGERATLSCRASQSVSDLYLAWYQQKPGQAPRLLMYDASIRATGIPDRFSGSGSGTDFTLTISRLEPEDFAVYYCQQYQTWPLTFGQGTKVEIKGLAVSTISSFFPPGYQIYIWAPLAGTCGVLLLSLVITLYCKRGRKKLLYIFKQPFMRPVQTTQEEDGCSCRFPEEEEGGCELRVKFSRSADAPAYQQGQNQLYNELNLGRREEYDVLDKRRGRDPEMGGKPRRKNPQEGLYNELQKDKMAEAYSEIGMKGERRRGKGHDGLYQGLSTATKDTYDALHMQALPPR
